The target of assay [1] is T1, human CD19 on CD19+ B cell lines (Ramos, Raji) (human, UniProt P15391 20-556).
T1 construct: whole, on cells; also called CD19+ Ramos cells; CD19+ Raji cells
T1 sequence (looked up): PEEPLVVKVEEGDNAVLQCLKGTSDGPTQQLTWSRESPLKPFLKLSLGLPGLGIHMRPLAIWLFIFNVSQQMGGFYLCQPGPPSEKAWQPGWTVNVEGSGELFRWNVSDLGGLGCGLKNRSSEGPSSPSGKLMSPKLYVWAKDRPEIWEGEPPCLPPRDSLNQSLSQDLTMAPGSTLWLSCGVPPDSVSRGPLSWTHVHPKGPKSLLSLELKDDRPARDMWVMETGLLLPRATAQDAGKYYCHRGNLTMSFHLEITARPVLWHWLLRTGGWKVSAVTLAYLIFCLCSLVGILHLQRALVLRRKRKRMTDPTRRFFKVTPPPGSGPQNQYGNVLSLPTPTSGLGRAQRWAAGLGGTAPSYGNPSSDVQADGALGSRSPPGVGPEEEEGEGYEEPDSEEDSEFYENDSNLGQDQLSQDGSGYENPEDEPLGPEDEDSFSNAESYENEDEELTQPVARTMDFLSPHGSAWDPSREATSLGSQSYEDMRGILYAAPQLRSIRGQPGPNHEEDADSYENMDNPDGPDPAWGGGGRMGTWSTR
The assay is described as follows: FACS on CD19+ Ramos cells.

Assay [2] concerns the target T1, human CD19 on CD19+ B cell lines …. The assay is described as follows: FACS on CD19+ Ramos cells. This is another data set of the same source.
The target in assay [3] is cynomolgus CTLA-4 protein (cynomolgus, UniProt G7PL88 36-161, Probably biotinylated for streptavidin-PE detection, as described for the human CTLA-4 reagent in paragraph 775; the letters cannot carry this.). The experiment in a line: FACS competition: blocks cynomolgus CTLA-4 protein binding to human CD80 engineered cells. As for the experimental part:
(§1) Competitive FACS was used to test whether the antibodies could block human or cynomolgus CTLA-4 binding to hCD80 on cell surface. […] Then the mixtures of antibody and CTLA-4 were added to the cells and incubated for 1 hour at 4° C. The cells were washed two times with 200 μl FACS washing buffer (DPBS containing 1% BSA). Streptavidin PE (BD Pharmingen-554061) 1 to 600 diluted in FACS buffer was added to the cells and incubated at 4° C. for 1 hour. Additional washing steps were performed two times with 200 μL FACS washing buffer followed by centrifugation at 1500 rpm for 4 minutes at 4° C. Finally, the cells were resuspended in 100 μL FACS washing buffer and fluorescence values were measured by flow cytometry and analyzed by FlowJo.

The target of assay [4] is T2, biotinylated human CTLA-4.ECD.hFc (W316-hPro1.ECD.hFc.Biotin) (human, UniProt P16410 36-161, biotin-labelled (site not stated)).
T2 construct: extracellular domain; In-house protein; also called hCTLA-4.ECD.hFc-Biotin; human CTLA-4 protein
T2 sequence (P16410 36-161): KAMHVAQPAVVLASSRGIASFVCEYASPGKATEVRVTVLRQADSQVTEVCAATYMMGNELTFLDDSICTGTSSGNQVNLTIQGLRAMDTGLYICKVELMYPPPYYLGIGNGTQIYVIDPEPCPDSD
The experiment in a line: FACS competition: blocks biotinylated human CTLA-4.ECD.hFc binding to human CD80 engineered cells. As for the experimental part: as §1

The target of assay [5] is T3, cynomolgus CTLA-4 on engineered 293F cells (W316-293F.cynoPro1.F1.Pool) (cynomolgus).
T3 construct: whole, on cells; also called cynomolgus CTLA-4 engineered cells
The experiment in a line: FACS binding to cynomolgus CTLA-4 engineered cells. The procedure:
4-fold titrated Abs with 1% BSA DPBS from 40 μg/ml to 0.00004 μg/ml were added to the cells. Plates were incubated at 4° C. for 1 hour. After wash, […] 1:150 diluted PE-labeled goat anti-human antibody (Jackson 109-115-098) was added to each well and the plates were incubated at 4° C. for 1 hour. The binding of the antibodies onto the cells was tested by flow cytometry and the mean fluorescence intensity (MFI) was analyzed by FlowJo.
On the technique in general: Flow cytometry measures light scatter and fluorescence of single cells or particles in a stream.

In assay [6] the target is T4, human PD-1 on engineered CHO-S cells (W305-CHO-S.hPro1.C6) (human, UniProt Q15116 25-288).
T4 construct: whole, on cells; also called human PD-1 engineered cells; PD-1+ cells
T4 sequence (Q15116 25-288, change not shown): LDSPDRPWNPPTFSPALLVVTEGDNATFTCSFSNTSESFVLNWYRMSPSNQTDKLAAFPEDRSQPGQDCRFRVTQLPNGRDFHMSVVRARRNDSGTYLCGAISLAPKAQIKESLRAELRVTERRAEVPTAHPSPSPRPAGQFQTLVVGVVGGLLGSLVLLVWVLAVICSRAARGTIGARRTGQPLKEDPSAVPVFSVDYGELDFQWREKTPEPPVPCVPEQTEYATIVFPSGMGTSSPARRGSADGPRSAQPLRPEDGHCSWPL
The experiment in a line: ELISA binding to human PD-1 (legend says 'engineered cells'; the form of the antigen in the ELISA is not described). On the technique in general: An ELISA detects its analyte on a solid surface through an enzyme-linked reagent.

Assay [7] concerns the target T5, human CTLA-4 on engineered 293F cells (W316-293F.hPro1.FL) (human, UniProt P16410 36-223).
T5 construct: whole, on cells; also called human CTLA-4 engineered cells; CTLA-4+ cells
The experiment in a line: ELISA binding to human CTLA-4 (legend says 'engineered cells'; the form of the antigen in the ELISA is not described).

Assay [8] concerns the target T5, human CTLA-4 on engineered 293F cells …. The experiment in a line: FACS binding to human CTLA-4 engineered cells. As for the experimental part: 3.16-fold titrated Abs with 1% BSA DPBS from 200 nM to 0.002 nM were added to the cells. Plates were incubated at 4° C. for 1 hour. After wash, […] 1:150 diluted PE-labeled goat anti-human antibody (Jackson 109-115-098) was added to each well and the plates were incubated at 4° C. for 1 hour. The binding of the antibodies onto the cells was tested by flow cytometry and the mean fluorescence intensity (MFI) was analyzed by FlowJo.

Assay [9] addresses T4, human PD-1 on engineered CHO-S cells …. The assay is described as follows: FACS binding to human PD-1 engineered cells. As for the experimental part: Engineered human PD-1 expressing cells W305-CHO-S.hPro1.C6 were seeded at 1×10⁵ cells/well in U-bottom 96-well plates (COSTAR 3799). Antibodies with 3.16-fold titration in 1% BSA DPBS from 200 nM to 0.002 nM were added to the cells. The plates were incubated at 4° C. for 1 hour. After wash, […] 1:125 diluted PE-labeled goat anti-human antibody (Jackson 109-115-098) was added to each well and the plates were incubated at 4° C. for 1 hour. The binding of the antibodies onto the cells was tested by flow cytometry and the mean fluorescence intensity (MFI) was analyzed by FlowJo.

The target of assay [10] is T6, human CD3 on CD3+ Jurkat cells (human, UniProt P07766 23-207; P09693 23-182; P04234 22-171).
T6 construct: whole, on cells; also called CD3 positive Jurkat cells
T6 sequence (P07766 23-207, chain 1 of 3): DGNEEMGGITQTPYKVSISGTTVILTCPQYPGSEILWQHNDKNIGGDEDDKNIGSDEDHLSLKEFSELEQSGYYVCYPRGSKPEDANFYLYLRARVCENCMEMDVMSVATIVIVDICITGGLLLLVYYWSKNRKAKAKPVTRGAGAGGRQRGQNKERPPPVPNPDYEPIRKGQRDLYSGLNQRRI
T6 sequence (P09693 23-182, chain 2 of 3): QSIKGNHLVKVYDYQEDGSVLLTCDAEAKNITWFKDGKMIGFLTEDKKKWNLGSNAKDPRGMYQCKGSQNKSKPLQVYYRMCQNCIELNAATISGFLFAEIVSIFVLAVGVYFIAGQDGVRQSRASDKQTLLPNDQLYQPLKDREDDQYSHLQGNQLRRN
T6 sequence (P04234 22-171, chain 3 of 3): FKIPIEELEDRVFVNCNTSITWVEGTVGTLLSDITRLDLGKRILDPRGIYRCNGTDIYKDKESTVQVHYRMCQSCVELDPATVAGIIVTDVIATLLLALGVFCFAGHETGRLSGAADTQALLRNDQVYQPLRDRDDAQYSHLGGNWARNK
The experiment in a line: FACS on CD3+ Jurkat cells.

The target of assay [11] is T6, human CD3 on CD3+ Jurkat cells. The experiment in a line: FACS on CD3+ Jurkat cells. This is another data set of the same source.
The target is the same in assay [12]. The experiment in a line: FACS on CD3+ Jurkat cells. The source holds these as a separate data set.

Read-outs that look alike come from different tables or passages of the source.

The EC50 (read off the curve) is the concentration at which the effect is half-maximal. One may read the IC50 as the midpoint of a concentration-inhibition curve. A lower IC50 goes with higher potency. One may read the EC50 as the concentration needed to bring the measured effect to its halfway point.

T5 sequence (P16410 36-223, change not shown): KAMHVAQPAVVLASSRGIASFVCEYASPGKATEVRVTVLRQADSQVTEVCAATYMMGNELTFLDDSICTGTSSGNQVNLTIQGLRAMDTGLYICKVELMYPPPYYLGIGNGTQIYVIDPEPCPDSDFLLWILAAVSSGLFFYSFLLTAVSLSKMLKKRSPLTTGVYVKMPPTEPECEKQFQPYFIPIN
Chain of cynomolgus CTLA-4 protein (G7PL88 entry or part of it limits assumed): as the sequence (P16410 36-161) above, with S14N, I18T, L106M counted along it

B1: anti-CD19 antibody U4 (wild type) (antibody, V domains shown)
VH: QMQLVQSGPEVKKPGTSVKVSCKASGYAFTSYNMYWVRQARGQRLEWIGYIDPYNGDTTYNQKFKGRVTITRDMSTSTAYMELSSLRSEDTAVYYCLTTAYAMDYWGQGTLVTVSS
VL: DIQLTQSPSFLSASVGDRVTITCSASSTVNYMHWYQQKPGKAPKLLIYSTSNLASGVPSRFSGSGSGTEFTLTISSLQPEDFATYYCHQWSSYPYTFGQGTKLEIKR
notes: also called native U4; wild type antibody U4
Take B1: the figures for the “EC50 (read off the curve)” value in [1] and in assay [2] were about 300 pM and about 500 pM, respectively.

B2: W3162_1.154.8-z35-IgG1K (antibody, V domains shown)
VH: QVQLVQSGAEVKKPGSSVKVSCKASGYTFTNYFMNWVRQAPGQGLEWMGRVDPEQGRADYAEKFKKRVTITADKSTSTAYMELSSLRSEDTAVYYCARRAMDNYGFAYWGQGTLVTVSS
VL: EIVLTQSPDFQSVTPKEKVTITCSANSALSYMYWYQQKPDQSPKLWVHGTSNLASGVPSRFSGSGSGTDFTLTINSLEAEDAATYYCHHWSNTQWTFGGGTKVEIK
notes: anti-CTLA-4 antibody, parent of the T5 arm; also called W3162_1.154.8-z35 (named T5)
On to B2, for which the IC50 is 1470 pM in assay [3] and 594 pM in [4]. Further, the concentration for a half-maximal effect (EC50) in [5] was 699 pM. Also, the “Top(MFI)” value in assay [5] turned out to be 10800 MFI.

B3: U6T4.G26.IgG4, bispecific anti-PD-1 x CTLA-4 (bispecific antibody)
chain: EVQLLESGGGLVQPGGSLRLSCAASGFTFSSHAMSWVRQAPGKGLEWVSTITGGGGSIYYADSVKGRFTISRDNSKNTLYLQMNSLRAEDTAVYYCAKNRAGEGYFDYWGQGTLVTVLEDLKNVFPPEVAVFEPSEAEISHTQKATLVCLATGFYPDHVELSWWVNGKEVHSGVCTDPQPLKEQPALQDSRYALSSRLRVSATFWQNPRNHFRCQVQFYGLSENDEWTQDRAKPVTQIVSAEAWGRGGGGSGGGGSDIVMTQTPLSLSVTPGQPASISCRSSQSLLNSDGNTYLYWYLQKPGQSPQLLIYLVSKLGSGVPNRFSGSGSGTDFTLKISRVEAEDVGVYYCVQGTHDPWTFGGGTKVEIKRTVAAPSVFIFPPSDEQLKSGTASVVCLLNNFYPREAKVQWKVDNALQSGNSQESVTEQDSKDSTYSLSSTLTLSKADYEKHKVYACEVTHQGLSSPVTKSFNRGEC
light: SYELTQPLSVSVALGQTARITCGGDNIGNKDVHWYQQKPGQAPVLVIYRDSNRPSGIPEGFSGSNSGNTATLTISRAQAGDEADYYCQVWDSIWVFGGGTKLTVLPDIQNPDPAVYQLRDSKSSDKSVCLFTDFDSQTQVSQSKDSDVYITDKCVLDMRSMDFKSNSAVAWSQKSDFACANAFQNSIIPEDTFFPSPESS
heavy: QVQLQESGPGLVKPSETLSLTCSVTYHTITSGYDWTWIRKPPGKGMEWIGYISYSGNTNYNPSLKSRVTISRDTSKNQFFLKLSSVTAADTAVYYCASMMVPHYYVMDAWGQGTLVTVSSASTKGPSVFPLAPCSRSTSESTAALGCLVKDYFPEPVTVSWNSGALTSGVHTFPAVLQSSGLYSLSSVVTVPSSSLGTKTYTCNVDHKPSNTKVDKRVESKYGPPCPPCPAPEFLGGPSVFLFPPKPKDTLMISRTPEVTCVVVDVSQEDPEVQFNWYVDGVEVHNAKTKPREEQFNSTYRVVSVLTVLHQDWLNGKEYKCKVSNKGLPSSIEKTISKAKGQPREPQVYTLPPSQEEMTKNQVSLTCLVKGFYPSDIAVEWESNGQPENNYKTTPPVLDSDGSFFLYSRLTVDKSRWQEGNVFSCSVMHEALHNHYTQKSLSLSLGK
notes: Light-heavy crossed chimeric Fab; first chain is U6-HC fused to T4-LC; also called U6T4 antibody pair in G26 format
Turning to B3, the half-maximal effective concentration (EC50) stood at 102 pM in [6], 177 pM in assay [7], 59800 pM in assay [8] and 1840 pM in [9].

B4: anti-CD3 antibody T3 (wild type, IgG1) (antibody, V domains shown)
VH: QVQLVQSGAEVKKPGSSVKVSCKASGFAFTDYYIHWVRQAPGQGLEWMGWISPGNVNTKYNENFKGRVTITADKSTSTAYMELSSLRSEDTAVYYCARDGYSLYYFDYWGQGTLVTVSS
VL: DIVMTQSPDSLAVSLGERATINCKSSQSLLNSRTRKNYLAWYQQKPGQPPKLLIYWASTRQSGVPDRFSGSGSGTDFTLTISSLQAEDVAVYYCTQSHTLRTFGGGTKVEIK
notes: Human IgG1; also called T3-IgG1; native antibody T3
For B4, the “EC50 (read off the curve)” value in assay [10] and in assay [11] was about 200 pM each time.

B5: T3-IgG4 (antibody, V domains shown)
VH: B4 VH
VL: B4 VL
notes: m1 is the IgG1 form of the same antibody; also called wild type anti-CD3 antibody T3 in IgG4 format
For the molecule B5, the “EC50 (read off the curve)” value in assay [12] was about 50 pM.

Values taken from patent publication US20240124586A1 (WUXI BIOLOGICS IRELAND, published 2024).
